In PMC7427332, “Tuning Transcription Factor Availability through Acetylation-Mediated Genomic Redistribution”:

Key:
[1] = molecular target: T1, MITF DNA-binding domain K243R (mouse? (MITF mouse cDNA stated for …, UniProt Q08874 287-403, K350R)); assay: fluorescence anisotropy; FA: 10 mM Tris/HCl pH 7.5, 300 mM NaCl, 0.01% Triton X-100, 0.1 mg/mL BSA, 1.33 nM DNA, 25 C, 5 min; EMSA: 25 mM HEPES pH 7.4, 150 mM KCl, 10% glycerol, 200 ug/ml BSA, 5 uM DTT, 20 min, 6% native gel; settings: protein: recombinant; tags: His (Ni-NTA purified; pETM-11 vector); chain copies: 2; label: 3'-fluorescein on strand 1; blunt
T1 sequence (Q08874 287-403 K350R): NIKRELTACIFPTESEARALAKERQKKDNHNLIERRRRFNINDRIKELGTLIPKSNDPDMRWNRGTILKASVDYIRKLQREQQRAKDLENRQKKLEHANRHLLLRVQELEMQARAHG

[2] = molecular target: T2, MITF DNA-binding domain K243Q (mouse? (MITF mouse cDNA stated for …, UniProt Q08874 287-403, K350Q)); assay: as above; settings: protein: recombinant; tags: His (Ni-NTA purified; pETM-11 vector); chain copies: 2; label: 3'-fluorescein on strand 1; blunt
T2 sequence (Q08874 287-403 K350Q): as the sequence (Q08874 287-403 K350R) above, with R64Q counted along it

[3] = molecular target: T3, MITF DNA-binding domain WT (bHLH-LZ) (mouse? (MITF mouse cDNA stated for …, UniProt Q08874 287-403)); assay: as above; settings: protein: recombinant; tags: His (Ni-NTA purified; pETM-11 vector); chain copies: 2; label: 3'-fluorescein on strand 1; blunt
T3 sequence (Q08874 287-403): as the sequence (Q08874 287-403 K350R) above, with R64K counted along it

[4] = molecular target: T2, MITF DNA-binding domain K243Q; assay: as above; settings: protein: recombinant; tags: His (Ni-NTA purified; pETM-11 vector); chain copies: 2; label: 3'-fluorescein on strand 1; blunt; remark: listed apart in the source
[5] = molecular target: T1, MITF DNA-binding domain K243R; assay: competition; competing N5 in EMSA; FA: 10 mM Tris/HCl pH 7.5, 300 mM NaCl, 0.01% Triton X-100, 0.1 mg/mL BSA, 1.33 nM DNA, 25 C, 5 min; EMSA: 25 mM HEPES pH 7.4, 150 mM KCl, 10% glycerol, 200 ug/ml BSA, 5 uM DTT, 20 min, 6% native gel; settings: protein: recombinant; tags: His (Ni-NTA purified; pETM-11 vector); chain copies: 2; blunt
[6] = molecular target: T2, MITF DNA-binding domain K243Q; assay: as above; settings: protein: recombinant; tags: His (Ni-NTA purified; pETM-11 vector); chain copies: 2; blunt
[7] = molecular target: T3, MITF DNA-binding domain WT (bHLH-LZ); assay: as above; settings: protein: recombinant; tags: His (Ni-NTA purified; pETM-11 vector); chain copies: 2; blunt
[8] = molecular target: T1, MITF DNA-binding domain K243R; assay: competition; competing N5 in EMSA; low-affinity motif; FA: 10 mM Tris/HCl pH 7.5, 300 mM NaCl, 0.01% Triton X-100, 0.1 mg/mL BSA, 1.33 nM DNA, 25 C, 5 min; EMSA: 25 mM HEPES pH 7.4, 150 mM KCl, 10% glycerol, 200 ug/ml BSA, 5 uM DTT, 20 min, 6% native gel; settings: protein: recombinant; tags: His (Ni-NTA purified; pETM-11 vector); chain copies: 2; blunt
[9] = molecular target: T3, MITF DNA-binding domain WT (bHLH-LZ); assay: as above; settings: protein: recombinant; tags: His (Ni-NTA purified; pETM-11 vector); chain copies: 2; blunt
[10] = molecular target: T2, MITF DNA-binding domain K243Q; assay: fluorescence anisotropy; FA: 10 mM Tris/HCl pH 7.5, 300 mM NaCl, 0.01% Triton X-100, 0.1 mg/mL BSA, 1.33 nM DNA, 25 C, 5 min; EMSA: 25 mM HEPES pH 7.4, 150 mM KCl, 10% glycerol, 200 ug/ml BSA, 5 uM DTT, 20 min, 6% native gel; settings: protein: recombinant; tags: His (Ni-NTA purified; pETM-11 vector); chain copies: 2; label: 3'-fluorescein on strand 1; blunt; remark: listed apart in the source

B1: M-box FA probe (dsDNA)
DNA 1: GAGATCATGTGTTGAC
DNA 2: GTCAACACATGATCTC
[1]
  binding signal: ~4 fold lower affinity than WT protein on same site
[2]
  binding signal: 35 fold lower affinity than WT protein on same site

B2: Consensus CLEAR box FA probe (dsDNA)
DNA 1: GAGATCACGTGATGAC
DNA 2: GTCATCACGTGATCTC
[3]
  binding result: binds
[1]
  binding signal: ~4 fold lower affinity than WT protein on same site
[4]
  binding signal: ~7 fold lower affinity than WT protein on same site

B3: TCACGTGA cold competitor (dsDNA)
DNA 1: CTAGACTTGTGGAGATCACGTGATGACTTCCTGATTCCT
DNA 2: AGGAATCAGGAAGTCATCACGTGATCTCCACAAGTCTAG
[5]
  binding result: binds
[6]
  binding result: binds
[7]
  binding result: binds

B4: TCACGTTA cold competitor (dsDNA)
DNA 1: CTAGACTTGTGGAGATCACGTTATGACTTCCTGATTCCT
DNA 2: AGGAATCAGGAAGTCATAACGTGATCTCCACAAGTCTAG
[6]
  binding result: no binding
[8]
  binding result: binds
[9]
  binding result: binds

B5: E-box FA probe (dsDNA)
DNA 1: GAGACCACGTGTTGAC
DNA 2: GTCAACACGTGGTCTC
[1]
  binding signal: ~4 fold lower affinity than WT protein on same site
[10]
  binding signal: 21 fold lower affinity than WT protein on same site
